This note sets out measurements from the supplement of paper PMC9170038.

The test system of this series is MS2 coat protein. The series can be described thus: apparent KD of MS2 coat protein; designed switch direction (-1 OFF switch, 1 ON switch): -1; higher = weaker reporter binding. A digest of the protocol:
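Normalised cluster fluorescence was curve-fitted, and each design's median over clusters is its apparent KD. Before this, SNAP-549-labelled MS2 coat protein was titrated from 0.7 or 1.5 nM, doubling to 3 µM, over RNA switches transcribed on Illumina chips by stalled E. coli RNA polymerase. Titrations had no input, 200 uM small-molecule ligand, or an oligonucleotide input, and steps lasted 0.8–1.5 h (lowest) to 10–20 min (highest).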

The mark [1] stands for this setting: Eterna round: R95, input ligand: microRNA oligo, concentration not stated.
The mark [2] stands for this setting: input ligand: microRNA oligo, concentration not stated.
[3] abbreviates: Eterna round: R95, input ligand: FMN 200 uM.
The mark [4] stands for this setting: Eterna round: R95, input ligand: none.

Regarding “GAUCGACAUGAGGAUCACCCAUGUCAGGAUAUCUACAUUGAAGCUUCGGCUUCAAUGUAGAGAAGGGACAUAAU [E1/13-B1] (Eterna round: R97, puzzle: Exclusion 1)”, the “apparent KD of MS2 coat protein” value runs as follows: (input ligand: FMN 200 uM) 0.0386 µM; (input ligand: none) 0.0397 µM.

In the case of “CUAAUUUGUGUGAGGAUAUGGCGACAGGAGACUAGCCAGAAGGUACAUGAGGAUCACCCAUGUAAGGUCCUCUC [Eternabot (L1) Solution 86] (Eterna round: R97, puzzle: Brourd's mod of Exclusion 4)”, the “apparent KD of MS2 coat protein” value runs as follows: (input ligand: FMN 200 uM) 0.0168 µM; (input ligand: none) 0.0163 µM.

For the sequence “GAUCAACAUGAGGAUCACCCAUGUGAGGAUAUUGACUUGCUCACUUUCCCAUCAGAGUCGAGAAGGCGCAUCUG [1986#21] (Eterna round: R97, puzzle: Exclusion 1)”, the “apparent KD of MS2 coat protein” value runs as follows: (input ligand: FMN 200 uM) 0.0281 µM; (input ligand: none) 0.0408 µM.

Regarding “ACCUUACAUGAGGAUCACCCAUGUCAGGAUAUCUCGGACAGCUGAAAACCAGCCGUCCAGAGAAGGGACGAGGA [Tiaza] (puzzle: Exclusion 1)”, under setting [1], the “apparent KD of MS2 coat protein” value was 0.0128 µM.

As to “CUCAAGUGAGGAUAUAUACUUCCAUCAUUUGAGAUAGAAGUAUAGAAGGCACAUGAGGAUCACCCAUGUAUAAC [Lamaanan] (puzzle: Exclusion 4)”, the “apparent KD of MS2 coat protein” value under setting [1] was 0.0992 µM.

In the case of “GUCAGCUCGUGAGGAUAUGCACAUGAGGAUCACCCAUGUAAGAUCAAGCUGCUUCGGCAGCAAGUGCAGAAGGUACGAGCUGAU [ENG2/9-C3] (Eterna round: R96, puzzle: Exclusion NG 2)”, the “apparent KD of MS2 coat protein” value reads like this: (input ligand: FMN 200 uM) 0.257 µM; under setting [2], 0.225 µM; (input ligand: none) 0.286 µM.

Regarding “AUAACAUGCUGGUGAUCAUACAUGAGGAUCACCCAUGUAACAAGCUUUUUGCUCGUCUUAUAAUUUAAGAUCACCAG [Stov1/7-A2] (Eterna round: R97, puzzle: Sensor, turn-off variant 1)”, the “apparent KD of MS2 coat protein” value reads like this: (input ligand: FMN 200 uM) 0.0174 µM; (input ligand: none) 0.0181 µM.

As to “CUUCUGUGAGGAUAUUAGUAGUAAAUGAAUAAAAUUAUUACUGAGAAGGCACAUGAGGAUCACCCAUGUUCCUC [Mat - Exclusion 4 - Eli Mod - D12] (Eterna round: R97, puzzle: Exclusion 4)”, the “apparent KD of MS2 coat protein” value is, setting by setting: (input ligand: FMN 200 uM) 0.386 µM; (input ligand: none) 0.0363 µM.

For “AUUGUUUAUGUAGGAUAUGCCUGGCGUGCCUUCGCAGAAGGACAUGAGGAUCACCCAUGUAUUGCGGUCUGCGUUCAGAUCGCC [salish99_ExNG1_r4_027] (Eterna round: R96, puzzle: Exclusion NG 1)”, the “apparent KD of MS2 coat protein” value by setting is: (input ligand: FMN 200 uM) 0.0213 µM; under setting [2], 0.015 µM; (input ligand: none) 0.0193 µM.

Take “GCUAAGAGUGUGAGGAUAUGCUGGUCCUUGGAUCAGCAGAAGGCACAUGAGGAUCACCCAUGUGAAAACUUAGC [Mat - Exclusion 4 - JL Mod - D64] (puzzle: Brourd's mod of Exclusion 4)”: under setting [1], the “apparent KD of MS2 coat protein” value is 0.0199 µM.

As to “AUCGUGUGAGGAUAUCGAUUAUGGAAGUCUAGGUCCAUACGCGAGAAGGCACAUGAGGAUCACCCAUGUAAUGG [jl-ex4-4.32 ViennaUCT mod] (Eterna round: R97, puzzle: Exclusion 4)”, the “apparent KD of MS2 coat protein” value runs as follows: (input ligand: FMN 200 uM) 0.0298 µM; (input ligand: none) 0.486 µM.

For the sequence “ACGUUAGGAGGAUAUAGAAUUUUAGACAUGAGGAUCACCCAUGUCCUAUGUCAUGAGAGGCUAGAAGGCCUAGUUU [Eternabot (L2) Solution 51] (Eterna round: R97, puzzle: Exclusion 5)”, the “apparent KD of MS2 coat protein” value reads like this: (input ligand: FMN 200 uM) 0.142 µM; (input ligand: none) 0.0294 µM.

As to “UCUGCCGCCGUGAGGAUAUGCCCGAAAAAACGCGGGCAGAAGGCACAUGAGGAUCACCCAUGUCCCGCGGUUUU [salish99_bmx4_r4_136] (Eterna round: R97, puzzle: Brourd's mod of Exclusion 4)”, the “apparent KD of MS2 coat protein” value was 0.031 µM (input ligand: FMN 200 uM) and 0.0158 µM (input ligand: none).

With “CAUUGUUAUCGAGGAUAUCGUAUUGAGAUACUACGAGAAGGCGGAAUAAACAUGAGGAUCACCCAUGUGAGACGGAUGCUUGUG [Ex NG1 #34] (Eterna round: R96, puzzle: Exclusion NG 1)”, the “apparent KD of MS2 coat protein” value stood at 0.0341 µM (input ligand: FMN 200 uM), 0.016 µM under setting [2] and 0.0283 µM (input ligand: none).

Consider “AAUAAGCGAGGAUAUACUAUUCCUCGACCGGCAGAAACCGGACUUGAGGAUCACCCAAGUAGAAGGCGCAAAAC [Oninso] (Eterna round: R97, puzzle: Exclusion 2)”, for which the “apparent KD of MS2 coat protein” value by setting is: (input ligand: FMN 200 uM) 0.448 µM; (input ligand: none) 0.0328 µM.

Regarding “AACGCGUGAGGAUAUUGAGGUCUAAAAUGGUAACAUGACCACGAGAAGGCACAUGAGGAUCACCCAUGUUCCCG [Eternabot (L2) Solution 49] (Eterna round: R97, puzzle: Exclusion 4)”, the “apparent KD of MS2 coat protein” value is, setting by setting: (input ligand: FMN 200 uM) 0.0851 µM; (input ligand: none) 0.0178 µM.

As to “GCCUGUGCCCUAGGAUAUCGCCCAGCCAAUGGAUGAGAAGGAGGCGGGUGAAACAUGAGGAUCACCCAUGUAAACGCACAAGCA [Inusri] (Eterna round: R96, puzzle: Exclusion NG 1)”, the “apparent KD of MS2 coat protein” value was 0.102 µM (input ligand: FMN 200 uM), 0.0145 µM under setting [2] and 0.0227 µM (input ligand: none).

In the case of “AGUCGAAAGAUCCACAUGGACAUGAGGAUCACCCAUGUGCAAGCCUUUUUCUCGUCACUAUCGUCAAAAGACGAUAG [Omei Mir Offv1 A6] (Eterna round: R97, puzzle: Sensor, turn-off variant 1)”, the “apparent KD of MS2 coat protein” value was 0.185 µM (input ligand: FMN 200 uM) and 0.234 µM (input ligand: none).

With “UAAACUUGCUUCCGAUCCUACAUGAGGAUCACCCAUGUGCUCGUCUUGUAUCGUACUGUGACGUUAGUCACGGUACG [mod my first] (Eterna round: R97, puzzle: Sensor, turn-off variant 1)”, the “apparent KD of MS2 coat protein” value is 0.477 µM (input ligand: FMN 200 uM) and 0.464 µM (input ligand: none).

As for “GGUCUACAUGAGGAUCACCCAUGUAAGGAUAUCGUCACUGGAGCUGCGGCUCCAGUGACGAGAAGGUGCAUAAU [E1/11-A3] (Eterna round: R97, puzzle: Exclusion 1)”, the “apparent KD of MS2 coat protein” value worked out at 0.0394 µM (input ligand: FMN 200 uM) and 0.0308 µM (input ligand: none).

“AAGAAACGAGGAUAUACAGUUGAGUGAGAGAGGGUAGUGUUACAUGAGGAUCACCCAUGUAGAAGGCGUGAGAG [JR_Exclu2_Sub089] (puzzle: Exclusion 2)”: the “apparent KD of MS2 coat protein” value under setting [3] was 0.0527 µM, the “apparent KD of MS2 coat protein” value under setting [1] is 0.0315 µM and the “apparent KD of MS2 coat protein” value under setting [4] was found to be 0.0327 µM.

As for “UGUUCGGUAGGAUAUACAUCGCUGAAGUGGCGGUGACUUCAACAUGAGGAUCACCCAUGUAGAAGGGCCGGCUC [EX2 C.4] (Eterna round: R97, puzzle: Exclusion 2)”, the “apparent KD of MS2 coat protein” value worked out at 0.0173 µM (input ligand: FMN 200 uM) and 0.0165 µM (input ligand: none).

For “AGAUAGUGGUGAGGAUAUCAGAAUAGAAAGAAAUGAGAAGGCGCACAUGAGGAUCACCCAUGUGAGGUCUUGAGACUACAUGGU [Prohibition 39 - Jieux - Exclusion NG 1] (Eterna round: R96, puzzle: Exclusion NG 1)”, the “apparent KD of MS2 coat protein” value under setting [2] is 0.0157 µM.

Regarding “CAUGUGUGAGGAUAUCCUAGACUAAUGGAGACGCUACCGUGGGAGAAGGUACAUGAGGAUCACCCAUGUGGACC [Eternabot (L1) Solution 88] (Eterna round: R97, puzzle: Exclusion 4)”, the “apparent KD of MS2 coat protein” value runs as follows: (input ligand: FMN 200 uM) 0.0327 µM; (input ligand: none) 0.0322 µM.

For “CUAAUGAUAGGAUAUACAGCGAGAGUCGACUCUGGUGCUCAACAUGAGGAUCACCCAUGUAGAAGGAUCAGACC [EX2 C.23] (Eterna round: R97, puzzle: Exclusion 2)”, the “apparent KD of MS2 coat protein” value was 0.0359 µM (input ligand: FMN 200 uM) and 0.0186 µM (input ligand: none).

Consider “GAUCGUUUAGAGGAUAUCAUGCUAAACAUUACAUGAGAAGGCUAGACAUGAGGAUCACCCAUGUAUGCUCGUGA [Exclusion 6 - 9:a] (puzzle: Exclusion 6)”, for which the “apparent KD of MS2 coat protein” value is, setting by setting: under setting [3], 0.0208 µM; under setting [1], 0.014 µM; under setting [4], 0.0148 µM.

Turning to “AAUAACAGAGGAUAUACUAUUUUAUGUGUUUGUUAUUUUGAACAUGAGGAUCACCCAUGUAGAAGGCUGAAUGA [JMF 65] (puzzle: Exclusion 2)”, the “apparent KD of MS2 coat protein” value under setting [1] stood at 0.0247 µM.

As to “CUUUAGCUAGGAUAUACAUGAGGAUCACCCAUGUUAGCGGUCCAUUGGGCCGCGGGUUGUAGAAGGAGCAUUAA [Azabeso] (puzzle: Exclusion 3)”, under setting [1], the “apparent KD of MS2 coat protein” value stood at 0.0253 µM.

Take “AGAAGUAGAAACCGAUCCUACAUGAGGAUCACCCAUGUAGCAAGACGUGCACGCGAAGCUCGUCAGACUACCAGAGG [salish99_TOv1_r3_018] (puzzle: Sensor v3, turn-off variant 1)”: the “apparent KD of MS2 coat protein” value by setting is: under setting [3], 0.316 µM; under setting [1], 0.124 µM; under setting [4], 0.0501 µM.

With “AAUUUACAUGAGGAUCACCCAUGUGAGGAUAUAUAUAUAUAUUUGUUAUUGUAUGUUUGUAGAAGGCGCGUGAU [JR_Exc1_Sub033] (Eterna round: R97, puzzle: Exclusion 1)”, the “apparent KD of MS2 coat protein” value is, setting by setting: (input ligand: FMN 200 uM) 0.033 µM; (input ligand: none) 0.0392 µM.

On to “GUGAACUCGCUACUUACCAACAUGAGGAUCACCCAUGUGGGAGAAAGUGAAUAGCUAGUUGUUACGUCUUAAUCCAG [Eternabot (L1) Solution 47] (Eterna round: R97, puzzle: Sensor, turn-off variant 1)”, for which the “apparent KD of MS2 coat protein” value was 0.0127 µM (input ligand: FMN 200 uM) and 0.013 µM (input ligand: none).

Turning to “GUAAUGUCAGGAUAUACUAAUGAUGAAUGAUCAGACAUUAUGUAGAAGGGACAUGAGGAUCACCCAUGUAAUAU [EX4 #4] (Eterna round: R97, puzzle: Exclusion 4)”, the “apparent KD of MS2 coat protein” value stood at 0.0493 µM (input ligand: FMN 200 uM) and 0.0284 µM (input ligand: none).
